Literature values as cited in PMC3103538.

Tests used:
Glu20 = Glu20 (UniProt position 268, KNYHLENEVAR)
Lys28 = Lys28 (UniProt position 276, VARLKKLVGER)
Lys8 = Lys8 (UniProt position 256, KQLEDKVEELL)
Tyr17 = Tyr17 (UniProt position 265, LLSKNYHLENE)
Glu6 = Glu6 (UniProt position 254, SMKQLEDKVEE)
Glu32 = Glu32 (UniProt position 280, KKLVGER----)
Cterm32 = Cterm32 (UniProt position 280, KKLVGER----)
Asp7 = Asp7 (UniProt position 255, MKQLEDKVEEL)
Glu22 = Glu22 (UniProt position 270, YHLENEVARLK)
Glu11 = Glu11 (UniProt position 259, EDKVEELLSKN)
His18 = His18 (UniProt position 266, LSKNYHLENEV)
Lys15 = Lys15 (UniProt position 263, EELLSKNYHLE)
Lys27 = Lys27 (UniProt position 275, EVARLKKLVGE)
Nterm0 = Nterm0 (UniProt position 248, RARKLQRMKQL)
Lys3 = Lys3 (UniProt position 251, KLQSMKQLEDK)
Glu10 = Glu10 (UniProt position 258, LEDKVEELLSK)

Substance: GCN4 leucine zipper (33-residue fragment, GCN4p1-type) (Saccharomyces cerevisiae; R1S; insertion of Gly0 before residue 1 (Arg1 substituted by the dipeptide Gly0-Ser1))
- pKa (Glu20): 4.38
- pKa (Lys28): 10.64
- pKa (Lys8): 11.26
- pKa (Tyr17): 9.82
- pKa (Glu6): 4.6
- pKa (Glu32): 4.62
- pKa (Cterm32): 4.03
- pKa (Asp7): 3.48
- pKa (Glu22): 4.2
- pKa (Glu11): 4.05
- pKa (His18): 6.24
- pKa (Lys15): 10.62
- pKa (Lys27): 11.1
- pKa (Nterm0): 7.88
- pKa (Lys3): 10.78
- pKa (Glu10): 3.94
